125 sequences from the supplement of paper PMC9112550, “Optimization of the antimicrobial peptide Bac7 by deep mutational scanning” (BMC Biology, 2022) can be followed below.
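Note: peptides expressed intracellularly from a pBAD plasmid library in pooled LB shake-flask culture, induced with 0.3% L-arabinose, DNA abundance read by NGS, three biological replicates, DESeq2 with apeglm shrinkage.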

The test system of this data set is Escherichia coli TOP10. Nature of the data set: shrunken log2 fold change of peptide-encoding DNA abundance (4.5 h post-induction vs induction); higher = less antimicrobial activity (less host growth inhibition). The settings on record: time post-induction: 4.5 h; library: site-saturation at positions 5, 18, 19, 20.
RRIRNRPPRLPRPRPRPTNAPRP: the “shrunken log2 fold change” value is -0.182.

Regarding RRIRRRPPRLPRPRPRPGYYPRP, the “shrunken log2 fold change” value was -0.105.

Turning to RRIRIRPPRLPRPRPRPQHEPRP, the “shrunken log2 fold change” value was -0.262.

In the case of RRIRHRPPRLPRPRPRPNIDPRP, the “shrunken log2 fold change” value is -0.153.

For RRIRCRPPRLPRPRPRPCACPRP, the “shrunken log2 fold change” value was -0.421.

Consider RRIRFRPPRLPRPRPRPTGVPRP, for which the “shrunken log2 fold change” value came out at 0.123.

Take RRIRIRPPRLPRPRPRPIDNPRP: the “shrunken log2 fold change” value was -0.0769.

As to RRIRGRPPRLPRPRPRPCQRPRP, the “shrunken log2 fold change” value was determined as 0.014.

RRIRDRPPRLPRPRPRPDYFPRP: the “shrunken log2 fold change” value was -0.052.

Regarding RRIRVRPPRLPRPRPRPVQWPRP, the “shrunken log2 fold change” value is -0.0327.

RRIRFRPPRLPRPRPRPDCIPRP: the “shrunken log2 fold change” value was -0.349.

As to RRIRCRPPRLPRPRPRPGNAPRP, the “shrunken log2 fold change” value came to 0.185.

On to RRIRKRPPRLPRPRPRPAVTPRP, for which the “shrunken log2 fold change” value is 0.0318.

On to RRIRLRPPRLPRPRPRPNRSPRP, for which the “shrunken log2 fold change” value is -0.0205.

With RRIRARPPRLPRPRPRPVAGPRP, the “shrunken log2 fold change” value amounted to 0.35.

Consider RRIRKRPPRLPRPRPRPLHCPRP, for which the “shrunken log2 fold change” value was 0.0213.

With RRIRRRPPRLPRPRPRPTHCPRP, the “shrunken log2 fold change” value was found to be 0.562.

For RRIRCRPPRLPRPRPRPPYFPRP, the “shrunken log2 fold change” value was -0.07.

Regarding RRIRIRPPRLPRPRPRPVYYPRP, the “shrunken log2 fold change” value is -1.62.

For the sequence RRIRERPPRLPRPRPRPFQMPRP, the “shrunken log2 fold change” value is -0.112.

Consider RRIRWRPPRLPRPRPRPCNGPRP, for which the “shrunken log2 fold change” value was -0.0973.

For RRIRFRPPRLPRPRPRPCHDPRP, the “shrunken log2 fold change” value is 0.236.

In the case of RRIRWRPPRLPRPRPRPNRPPRP, the “shrunken log2 fold change” value stood at 0.078.

On to RRIRERPPRLPRPRPRPPHRPRP, for which the “shrunken log2 fold change” value came out at 0.0387.

In the case of RRIRGRPPRLPRPRPRPFEYPRP, the “shrunken log2 fold change” value came out at 0.0664.

Regarding RRIRRRPPRLPRPRPRPNYDPRP, the “shrunken log2 fold change” value was -0.187.

On to RRIRNRPPRLPRPRPRPNDYPRP, for which the “shrunken log2 fold change” value is -0.365.

Consider RRIRCRPPRLPRPRPRPIIRPRP, for which the “shrunken log2 fold change” value is -0.18.

With RRIRERPPRLPRPRPRPSIVPRP, the “shrunken log2 fold change” value was -0.443.

Take RRIRDRPPRLPRPRPRPTRQPRP: the “shrunken log2 fold change” value was determined as 0.228.

In the case of RRIRDRPPRLPRPRPRPFRSPRP, the “shrunken log2 fold change” value is -0.0401.

On to RRIRPRPPRLPRPRPRPIYRPRP, for which the “shrunken log2 fold change” value was -0.158.

For RRIRGRPPRLPRPRPRPYGIPRP, the “shrunken log2 fold change” value was -0.165.

Take RRIRHRPPRLPRPRPRPPNNPRP: the “shrunken log2 fold change” value was -0.58.

Take RRIRVRPPRLPRPRPRPWACPRP: the “shrunken log2 fold change” value was -0.191.

Consider RRIRWRPPRLPRPRPRPMFDPRP, for which the “shrunken log2 fold change” value is 0.139.

On to RRIRPRPPRLPRPRPRPSYPPRP, for which the “shrunken log2 fold change” value is -0.181.

For the sequence RRIRDRPPRLPRPRPRPEHCPRP, the “shrunken log2 fold change” value is -0.0205.

Regarding RRIRNRPPRLPRPRPRPEGTPRP, the “shrunken log2 fold change” value came to 0.105.

Take RRIRQRPPRLPRPRPRPETSPRP: the “shrunken log2 fold change” value is -0.192.

Regarding RRIRPRPPRLPRPRPRPDRSPRP, the “shrunken log2 fold change” value was -0.1.

RRIRERPPRLPRPRPRPYDHPRP: the “shrunken log2 fold change” value was -0.397.

For RRIRYRPPRLPRPRPRPRVTPRP, the “shrunken log2 fold change” value was -0.286.

On to RRIRIRPPRLPRPRPRPEYVPRP, for which the “shrunken log2 fold change” value is -0.196.

Consider RRIRRRPPRLPRPRPRPLSNPRP, for which the “shrunken log2 fold change” value was -0.0853.

As for RRIRDRPPRLPRPRPRPCPSPRP, the “shrunken log2 fold change” value was determined as 0.114.

On to RRIRERPPRLPRPRPRPMSLPRP, for which the “shrunken log2 fold change” value stood at 0.0379.

For RRIRLRPPRLPRPRPRPSKQPRP, the “shrunken log2 fold change” value is -0.572.

In the case of RRIRGRPPRLPRPRPRPAQEPRP, the “shrunken log2 fold change” value was 0.547.

As to RRIRRRPPRLPRPRPRPLQTPRP, the “shrunken log2 fold change” value was found to be 1.59.

As for RRIRVRPPRLPRPRPRPHPGPRP, the “shrunken log2 fold change” value was -0.325.

In the case of RRIRHRPPRLPRPRPRPKPIPRP, the “shrunken log2 fold change” value was -0.0951.

As to RRIRKRPPRLPRPRPRPPYCPRP, the “shrunken log2 fold change” value came to 0.0662.

On to RRIRNRPPRLPRPRPRPHTMPRP, for which the “shrunken log2 fold change” value is -0.298.

With RRIRNRPPRLPRPRPRPGKFPRP, the “shrunken log2 fold change” value is -0.034.

For RRIRTRPPRLPRPRPRPKHHPRP, the “shrunken log2 fold change” value was -0.263.

Take RRIRFRPPRLPRPRPRPVSAPRP: the “shrunken log2 fold change” value was 0.25.

Consider RRIRPRPPRLPRPRPRPFFAPRP, for which the “shrunken log2 fold change” value was determined as 0.468.

As to RRIRHRPPRLPRPRPRPTGAPRP, the “shrunken log2 fold change” value amounted to 0.0132.

In the case of RRIRNRPPRLPRPRPRPLEQPRP, the “shrunken log2 fold change” value was -0.166.

With RRIRTRPPRLPRPRPRPNSTPRP, the “shrunken log2 fold change” value was -0.363.

Turning to RRIRKRPPRLPRPRPRPYIQPRP, the “shrunken log2 fold change” value was -0.319.

In the case of RRIRTRPPRLPRPRPRPKAWPRP, the “shrunken log2 fold change” value worked out at 0.255.

Take RRIRERPPRLPRPRPRPWGQPRP: the “shrunken log2 fold change” value is 0.115.

With RRIRQRPPRLPRPRPRPFHHPRP, the “shrunken log2 fold change” value was -0.0143.

Regarding RRIRSRPPRLPRPRPRPRPFPRP, the “shrunken log2 fold change” value was 0.188.

Regarding RRIRCRPPRLPRPRPRPHNLPRP, the “shrunken log2 fold change” value was -0.592.

Take RRIRERPPRLPRPRPRPNHKPRP: the “shrunken log2 fold change” value is -0.823.

As to RRIRHRPPRLPRPRPRPDRVPRP, the “shrunken log2 fold change” value is -0.0183.

On to RRIRKRPPRLPRPRPRPDHIPRP, for which the “shrunken log2 fold change” value was -0.0249.

Turning to RRIRMRPPRLPRPRPRPYTSPRP, the “shrunken log2 fold change” value was -0.265.

As to RRIRRRPPRLPRPRPRPLGTPRP, the “shrunken log2 fold change” value was determined as 0.547.

As for RRIRHRPPRLPRPRPRPTILPRP, the “shrunken log2 fold change” value was -0.194.

In the case of RRIRHRPPRLPRPRPRPHGAPRP, the “shrunken log2 fold change” value is -0.183.

Take RRIRHRPPRLPRPRPRPKCQPRP: the “shrunken log2 fold change” value was -0.0621.

Regarding RRIRTRPPRLPRPRPRPMRTPRP, the “shrunken log2 fold change” value stood at 0.276.

On to RRIRIRPPRLPRPRPRPNHSPRP, for which the “shrunken log2 fold change” value was -0.639.

Take RRIRTRPPRLPRPRPRPADQPRP: the “shrunken log2 fold change” value is -0.0202.

Consider RRIRHRPPRLPRPRPRPDICPRP, for which the “shrunken log2 fold change” value was -0.622.

For RRIRQRPPRLPRPRPRPTIKPRP, the “shrunken log2 fold change” value was -0.374.

Take RRIRLRPPRLPRPRPRPHMQPRP: the “shrunken log2 fold change” value is -0.556.

With RRIRQRPPRLPRPRPRPQCDPRP, the “shrunken log2 fold change” value was -0.146.

For RRIRCRPPRLPRPRPRPLWCPRP, the “shrunken log2 fold change” value is -0.208.

For RRIRRRPPRLPRPRPRPGDGPRP, the “shrunken log2 fold change” value turned out to be 0.467.

On to RRIRERPPRLPRPRPRPCPLPRP, for which the “shrunken log2 fold change” value is -0.265.

In the case of RRIRIRPPRLPRPRPRPDRLPRP, the “shrunken log2 fold change” value is -0.453.

In the case of RRIRPRPPRLPRPRPRPAKQPRP, the “shrunken log2 fold change” value came out at 0.0651.

RRIRARPPRLPRPRPRPERQPRP: the “shrunken log2 fold change” value came out at 1.13.

As for RRIRWRPPRLPRPRPRPSGIPRP, the “shrunken log2 fold change” value came out at 0.146.

On to RRIRLRPPRLPRPRPRPCCAPRP, for which the “shrunken log2 fold change” value turned out to be 0.694.

RRIRPRPPRLPRPRPRPQSWPRP: the “shrunken log2 fold change” value is -0.134.

Consider RRIRDRPPRLPRPRPRPYVQPRP, for which the “shrunken log2 fold change” value was -0.13.

On to RRIRWRPPRLPRPRPRPKDKPRP, for which the “shrunken log2 fold change” value was 0.077.

Take RRIRLRPPRLPRPRPRPRWPPRP: the “shrunken log2 fold change” value stood at 0.716.

For the sequence RRIRHRPPRLPRPRPRPDVSPRP, the “shrunken log2 fold change” value was -0.198.

Take RRIRDRPPRLPRPRPRPNNEPRP: the “shrunken log2 fold change” value is -0.526.

RRIRRRPPRLPRPRPRPSPFPRP: the “shrunken log2 fold change” value worked out at 0.292.

As for RRIRCRPPRLPRPRPRPQYFPRP, the “shrunken log2 fold change” value was -0.252.

Regarding RRIRMRPPRLPRPRPRPEFCPRP, the “shrunken log2 fold change” value amounted to 1.18.

With RRIRTRPPRLPRPRPRPWDYPRP, the “shrunken log2 fold change” value is -0.139.

For RRIRNRPPRLPRPRPRPTHEPRP, the “shrunken log2 fold change” value amounted to 0.0695.

Regarding RRIRVRPPRLPRPRPRPFDTPRP, the “shrunken log2 fold change” value is -0.847.

RRIRVRPPRLPRPRPRPYLNPRP: the “shrunken log2 fold change” value is -0.16.

Consider RRIRDRPPRLPRPRPRPDFNPRP, for which the “shrunken log2 fold change” value is -0.188.

Consider RRIRLRPPRLPRPRPRPIIMPRP, for which the “shrunken log2 fold change” value was -0.252.

As for RRIRRRPPRLPRPRPRPCVAPRP, the “shrunken log2 fold change” value worked out at 0.261.

Take RRIRWRPPRLPRPRPRPDALPRP: the “shrunken log2 fold change” value was 0.63.

Take RRIRQRPPRLPRPRPRPWFYPRP: the “shrunken log2 fold change” value is -0.373.

Regarding RRIRMRPPRLPRPRPRPQDWPRP, the “shrunken log2 fold change” value turned out to be 0.00698.

Regarding RRIRERPPRLPRPRPRPACNPRP, the “shrunken log2 fold change” value was -0.102.

In the case of RRIRLRPPRLPRPRPRPQKCPRP, the “shrunken log2 fold change” value was -0.222.

As to RRIRYRPPRLPRPRPRPVCGPRP, the “shrunken log2 fold change” value is -0.463.

Regarding RRIRSRPPRLPRPRPRPLVFPRP, the “shrunken log2 fold change” value was -0.0421.

With RRIRNRPPRLPRPRPRPSFIPRP, the “shrunken log2 fold change” value was -0.934.

On to RRIRDRPPRLPRPRPRPDIQPRP, for which the “shrunken log2 fold change” value was -0.228.

Turning to RRIRQRPPRLPRPRPRPAKVPRP, the “shrunken log2 fold change” value is 0.325.

Consider RRIRCRPPRLPRPRPRPCTCPRP, for which the “shrunken log2 fold change” value was -0.583.

As to RRIRGRPPRLPRPRPRPPAFPRP, the “shrunken log2 fold change” value stood at 1.09.

As for RRIRNRPPRLPRPRPRPKEYPRP, the “shrunken log2 fold change” value turned out to be 0.199.

In the case of RRIRMRPPRLPRPRPRPQWRPRP, the “shrunken log2 fold change” value worked out at 1.5.

Take RRIRSRPPRLPRPRPRPHFIPRP: the “shrunken log2 fold change” value was -0.344.

With RRIRQRPPRLPRPRPRPHLWPRP, the “shrunken log2 fold change” value worked out at 0.0824.

Consider RRIRARPPRLPRPRPRPWCRPRP, for which the “shrunken log2 fold change” value came to 0.0486.

As to RRIRERPPRLPRPRPRPFMPPRP, the “shrunken log2 fold change” value is -0.777.

With RRIRQRPPRLPRPRPRPSRWPRP, the “shrunken log2 fold change” value was -0.0126.
